The numbers were not newly measured in publication PMC8417749, which cites them from elsewhere.

One data set deals with CXCR2 (Homo sapiens) (UniProt P25025).
A further data set deals with CXCR1 (Homo sapiens) (UniProt P25024).
CXCR1 (Homo sapiens), sequence (P25024 whole entry): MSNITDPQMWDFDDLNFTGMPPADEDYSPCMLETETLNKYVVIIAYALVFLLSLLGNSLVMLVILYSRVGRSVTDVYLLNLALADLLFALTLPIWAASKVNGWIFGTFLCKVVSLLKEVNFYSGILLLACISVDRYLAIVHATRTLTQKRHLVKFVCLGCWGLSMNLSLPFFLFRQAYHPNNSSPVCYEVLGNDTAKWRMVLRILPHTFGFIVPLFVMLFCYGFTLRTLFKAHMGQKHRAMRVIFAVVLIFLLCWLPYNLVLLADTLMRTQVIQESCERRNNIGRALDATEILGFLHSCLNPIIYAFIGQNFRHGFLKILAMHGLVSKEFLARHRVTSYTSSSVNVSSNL

IL-8, sequence (P10145 28-99): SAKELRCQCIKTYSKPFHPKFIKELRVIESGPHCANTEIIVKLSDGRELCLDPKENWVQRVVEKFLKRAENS
CXCR2 (Homo sapiens), sequence (P25025 whole entry): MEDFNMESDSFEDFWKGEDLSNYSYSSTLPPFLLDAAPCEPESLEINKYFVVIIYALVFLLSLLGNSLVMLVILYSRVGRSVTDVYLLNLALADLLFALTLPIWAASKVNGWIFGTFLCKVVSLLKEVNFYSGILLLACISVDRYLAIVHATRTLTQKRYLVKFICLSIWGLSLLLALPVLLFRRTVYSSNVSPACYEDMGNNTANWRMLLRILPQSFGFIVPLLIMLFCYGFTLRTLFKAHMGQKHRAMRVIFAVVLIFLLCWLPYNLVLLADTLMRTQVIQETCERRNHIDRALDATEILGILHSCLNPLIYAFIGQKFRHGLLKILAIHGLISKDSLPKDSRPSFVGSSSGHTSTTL

Regarding IL-8 (from UniProt P10145), the Kd in the data set with CXCR2 (Homo sapiens) and with CXCR1 (Homo sapiens) was 2 nM throughout.
